The target of experiment [1] is T1, SARS-CoV-1 Receptor Binding Domain (RBD) protein (SARS-CoV-1, UniProt P59594 306-527).
T1 construct: also called SARS1
Nature of the experiment: SPR Carterra LSA, scFv captured via anti-V5.

The target in experiment [2] is T2, MERS Receptor Binding Domain (RBD) protein (Middle East Respiratory Syndrome (MERS) …, UniProt K9N5Q8 367-606).
T2 construct: also called Middle East Respiratory Syndrome (MERS) virus
T2 sequence: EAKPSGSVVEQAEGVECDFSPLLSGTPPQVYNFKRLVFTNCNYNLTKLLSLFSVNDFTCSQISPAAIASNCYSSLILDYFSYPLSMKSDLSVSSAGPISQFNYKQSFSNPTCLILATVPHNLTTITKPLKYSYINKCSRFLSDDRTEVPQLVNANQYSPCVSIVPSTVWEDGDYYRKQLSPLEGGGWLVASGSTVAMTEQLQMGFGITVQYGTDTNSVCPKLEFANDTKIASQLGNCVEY
The experiment can be described thus: SPR Carterra LSA, scFv captured via anti-V5.

B1: COVID19_P09_B10 (scFv, V domains shown)
VH: QVQLVQSGAEVKKPGSSVKVSCKASGYSFTDYHIHWVRQAPGQGLEWMAMIVPRGGSTTYAQKFQGRVTITADESTSTAYMELSSLRSEDTAVYYCAGGSGISTPMDVWGQGTLVTVSS
VL: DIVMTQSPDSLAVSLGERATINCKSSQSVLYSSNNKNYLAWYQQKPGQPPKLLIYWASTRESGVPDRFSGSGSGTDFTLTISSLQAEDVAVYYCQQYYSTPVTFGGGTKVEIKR
Turning to B1, the binding result in experiment [1] and in experiment [2] was “no binding (tested: 300 nM)” in each case.

B2: COVID19_P21_H03 (scFv, V domains shown)
VH: QVQLVQSGAEVKKPGSSVKVSCKASGYTFTNYGINWVRQAPGQGLEWMGWMNPYSGNTGYAQKFQGRVTITADESTSTAYMELSSLRSEDTAVYYCAVLSGISTPMDVWGQGTLVTVSS
VL: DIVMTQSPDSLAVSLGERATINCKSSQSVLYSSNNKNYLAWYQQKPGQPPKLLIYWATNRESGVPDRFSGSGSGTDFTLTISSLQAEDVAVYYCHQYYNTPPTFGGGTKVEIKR
For B2, the binding result in experiment [1] and in experiment [2] was “no binding (tested: 300 nM)” throughout.

B3: COVID19_P21_B02 (scFv, V domains shown)
VH: QVQLVQSGAEVKKPGSSVKVSCKASGYTFTNYGINWVRQAPGQGLEWMGWMNPNSGNTGYAQKFQGRVTITADESTSTAYMELSSLRSEDTAVYYCAAVSGISTPMDVWGQGTLVTVSS
VL: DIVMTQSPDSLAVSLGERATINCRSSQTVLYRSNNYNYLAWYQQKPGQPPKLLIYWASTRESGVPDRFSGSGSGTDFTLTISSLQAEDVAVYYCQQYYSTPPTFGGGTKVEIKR
On to B3, for which the binding result in experiment [1] and in experiment [2] was “no binding (tested: 300 nM)” each time.

B4: COVID19_P09_G12 (scFv, V domains shown)
VH: QVQLVQSGAEVKKPGSSVKVSCKASGYPFTNYGISWVRQAPGQGLEWMGWMNPNSGNTGYAQKFQGRVTITADESTSTAYMELSSLRSEDTAVYYCATLSGISTPMDVWGQGTLVTVSS
VL: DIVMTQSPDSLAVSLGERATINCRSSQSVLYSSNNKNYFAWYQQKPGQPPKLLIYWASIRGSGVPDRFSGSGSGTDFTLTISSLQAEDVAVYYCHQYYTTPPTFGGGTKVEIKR
B4: the binding result in experiment [1] and in experiment [2] was “no binding (tested: 300 nM)” each time.

B5: COVID19_P21_E04 (scFv, V domains shown)
VH: QVQLVQSGAEVKKPGSSVKVSCKASGYTFTNYGINWMRQAPGQGLEWMGWMNPNSGNTGYAQKFQGRVTITADESTSTAYMELSSLRSEDTAVYYCAGGSGISTPMDVWGQGTLVTVSS
VL: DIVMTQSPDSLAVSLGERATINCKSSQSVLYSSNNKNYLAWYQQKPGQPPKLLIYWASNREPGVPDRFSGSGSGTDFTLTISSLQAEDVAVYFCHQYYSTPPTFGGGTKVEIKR
For the molecule B5, the binding result in experiment [1] and in experiment [2] was “no binding (tested: 300 nM)” throughout.

B6: COVID19_P22_C09 (scFv, V domains shown)
VH: QVQLVQSGAEVKKPGSSVKVSCKASGYNFTDYHIQWVRQAPGQGLEWVGMIIPRHGGTAYAQRFQGRVTITADESTSTAYMELSSLRSEDTAVYYCAGGSGLTTPMDVWGQGTLVTVSS
VL: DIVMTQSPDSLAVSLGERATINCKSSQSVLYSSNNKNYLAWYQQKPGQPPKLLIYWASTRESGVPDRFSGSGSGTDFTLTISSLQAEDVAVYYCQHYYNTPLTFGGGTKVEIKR
With B6, the binding result in experiment [1] and in experiment [2] was “no binding (tested: 300 nM)” throughout.

B7: COVID19_P10_B10 (scFv, V domains shown)
VH: QVQLVQSGAEVKKPGSSVKVSCKASGYSFSDYHVHWVRQAPGQGLEWVGMIIPRHGGTAYAQKFQGRVTITADESTSTAYMELSSLRSEDTAVYYCAGGSGISTPMDVWGQGTLVTVSS
VL: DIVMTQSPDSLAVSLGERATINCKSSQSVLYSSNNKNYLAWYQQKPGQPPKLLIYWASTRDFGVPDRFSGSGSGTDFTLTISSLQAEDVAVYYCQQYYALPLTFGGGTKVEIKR
As for B7, the binding result in experiment [1] and in experiment [2] was “no binding (tested: 300 nM)” throughout.

B8: COVID19_P22_F04 (scFv, V domains shown)
VH: QVQLVQSGAEVKKPGSSVKVSCKASGGGFITYWIGWVRQAPGQGLEWMGIIYPGDGEARYSQKFQGRVTITADESTSTAYMELSSLRSEDTAVYYCAGGSGISTPMDVWGQGTLVTVSS
VL: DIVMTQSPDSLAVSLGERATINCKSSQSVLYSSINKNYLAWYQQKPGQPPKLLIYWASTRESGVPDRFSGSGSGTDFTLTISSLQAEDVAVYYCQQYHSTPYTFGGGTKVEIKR
As to B8, the binding result in experiment [1] and in experiment [2] was “no binding (tested: 300 nM)” each time.

B9: COVID19_P21_A08 (scFv, V domains shown)
VH: QVQLVQSGAEVKKPGSSVKVSCKASGGTFITYWIGWVRQAPGQGLEWMGWINPNSGGTNYAQKFQGRVTITADESTSTAYMELSSLRSEDTAVYYCAGGSGISTPMDVWGQGTLVTVSS
VL: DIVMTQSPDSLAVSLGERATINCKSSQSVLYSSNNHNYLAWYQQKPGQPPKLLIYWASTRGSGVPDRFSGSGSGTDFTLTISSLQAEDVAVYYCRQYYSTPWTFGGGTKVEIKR
Regarding B9, the binding result in experiment [1] and in experiment [2] was “no binding (tested: 300 nM)” throughout.

B10: COVID19_P22_B04 (scFv, V domains shown)
VH: QVQLVQSGAEVKKPGSSVKVSCKASGYGFITYWIGWVRQAPGQGLEWMGIIYPGDSETRYAQKFQGRVTITADESTSTAYMELSSLRSEDTAVYYCAGGEGISTPMDVWGQGTLVTVSS
VL: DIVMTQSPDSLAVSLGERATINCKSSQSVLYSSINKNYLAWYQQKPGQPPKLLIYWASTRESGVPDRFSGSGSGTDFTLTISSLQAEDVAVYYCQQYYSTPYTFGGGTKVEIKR
B10: the binding result in experiment [1] and in experiment [2] was “no binding (tested: 300 nM)” in each case.

B11: COVID19_P21_B01 (scFv, V domains shown)
VH: QVQLVQSGAEVKKPGSSVKVSCKASGYTFSTYWIGWVRQAPGQGLEWMGWIDPNSGGTNYAQKFQGRVTITADESTSTAYMELSSLRSEDTAVYYCAGGSGISTPMDVWGQGTLVTVSS
VL: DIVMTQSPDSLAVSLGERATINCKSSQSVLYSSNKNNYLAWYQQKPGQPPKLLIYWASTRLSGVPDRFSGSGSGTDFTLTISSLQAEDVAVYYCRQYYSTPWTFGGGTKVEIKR
Consider B11, for which the binding result in experiment [1] and in experiment [2] was “no binding (tested: 300 nM)” throughout.

B12: COVID19_P10_D08 (scFv, V domains shown)
VH: QVQLVQSGAEVKKPGSSVKVSCKASGGTFNSHAISWVRQAPGQGLEWMGWINPNSGATNYAQKFQGRVTITADESTSTAYMELSSLRSEDTAVYYCAGGSGISTPVGVWGQGTLVTVSS
VL: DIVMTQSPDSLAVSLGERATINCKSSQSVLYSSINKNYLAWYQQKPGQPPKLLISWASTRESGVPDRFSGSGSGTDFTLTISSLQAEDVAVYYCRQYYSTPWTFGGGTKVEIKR
Take B12: the binding result in experiment [1] and in experiment [2] was “no binding (tested: 300 nM)” each time.

B13: COVID19_P22_H10 (scFv, V domains shown)
VH: QVQLVQSGAEVKKPGSSVKVSCKASGGGFSTYWIGWVRQAPGQGLEWVGWINPNSGATKYAQKFQGRVTITADESTSTAYMELSSLRSEDTAVYYCAGGSGISTPMDVWGQGTLVTVSS
VL: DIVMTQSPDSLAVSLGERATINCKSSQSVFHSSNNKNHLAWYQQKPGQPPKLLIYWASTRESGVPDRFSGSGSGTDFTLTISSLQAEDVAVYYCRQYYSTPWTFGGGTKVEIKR
For the molecule B13, the binding result in experiment [1] and in experiment [2] was “no binding (tested: 300 nM)” each time.

B14: COVID19_P10_G03 (scFv, V domains shown)
VH: QVQLVQSGAEVKKPGSSVKVSCKASGGTFSNSSINWVRQAPGQGLEWMGRINPNSGGTNYAQKFQGRVTITADESTSTAYMELSSLRSEDTAVYYCAGGSGISTPMDVWGQGTLVTVSS
VL: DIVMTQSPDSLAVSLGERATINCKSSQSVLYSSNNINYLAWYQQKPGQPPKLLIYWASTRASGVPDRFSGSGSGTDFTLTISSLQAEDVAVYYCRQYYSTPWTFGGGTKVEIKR
With B14, the binding result in experiment [1] and in experiment [2] was “no binding (tested: 300 nM)” throughout.

B15: COVID19_P09_H09 (scFv, V domains shown)
VH: QVQLVQSGAEVKKPGSSVKVSCKASGGTFITYWIYWVRQAPGQGLEWMGIIYPGDGEARYSQKFYGRVTITADESTSTAYMELSSLRSEDTAVYYCAGSGGISTPMDVWGQGTLVTVSS
VL: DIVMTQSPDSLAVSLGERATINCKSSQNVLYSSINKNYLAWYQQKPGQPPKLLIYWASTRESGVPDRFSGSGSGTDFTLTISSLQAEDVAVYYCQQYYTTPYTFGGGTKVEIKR
As to B15, the binding result in experiment [1] and in experiment [2] was “no binding (tested: 300 nM)” in each case.

B16: COVID19_P22_G12 (scFv, V domains shown)
VH: QVQLVQSGAEVKKPGSSVKVSCKASGGGFITYWIGWVRQAPGQGLEWMGIIYPGDSETRYSQKFQGRVTITADESTSTAYMELSSLRSEDTAVYYCAGGSGISTPMDVWGQGTLVTVSS
VL: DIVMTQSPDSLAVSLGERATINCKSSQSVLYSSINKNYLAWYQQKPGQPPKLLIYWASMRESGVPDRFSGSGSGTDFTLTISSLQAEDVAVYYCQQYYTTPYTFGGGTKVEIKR
Take B16: the binding result in experiment [1] and in experiment [2] was “no binding (tested: 300 nM)” each time.

B17: COVID19_P09_C05 (scFv, V domains shown)
VH: QVQLVQSGAEVKKPGSSVKVSCKASGYSFSDYYIHWVRQAPGQGLEWMGWIDPNSGGTNYAQKFQGRVTITADESTSTAYMELSSLRSEDTAVYYCAGGSGISTPMDVWGQGTLVTVSS
VL: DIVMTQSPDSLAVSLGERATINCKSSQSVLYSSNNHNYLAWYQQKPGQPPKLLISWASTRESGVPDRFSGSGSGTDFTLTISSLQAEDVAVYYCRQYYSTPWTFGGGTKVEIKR
For B17, the binding result in experiment [1] and in experiment [2] was “no binding (tested: 300 nM)” each time.

B18: COVID19_P09_D06 (scFv, V domains shown)
VH: QVQLVQSGAEVKKPGSSVKVSCKASGYGFITYWIGWVRQAPGQGLEWMGIIYPGDSETRYAQKFQGRVTITADESTSTAYMELSSLRSEDTAVYYCAGGSGIYVPMDVWGQGTLVTVSS
VL: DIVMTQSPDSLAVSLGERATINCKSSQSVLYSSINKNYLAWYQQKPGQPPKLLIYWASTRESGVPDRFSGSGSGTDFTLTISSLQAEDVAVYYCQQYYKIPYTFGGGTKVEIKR
On to B18, for which the binding result in experiment [1] and in experiment [2] was “no binding (tested: 300 nM)” in each case.

B19: COVID19_P21_H01 (scFv, V domains shown)
VH: QVQLVQSGAEVKKPGSSVKVSCKASGYGFSTYWIGWVRQAPGQGLEWMGWINPNSGGTNYAQKFQGRVTITADESTSTAYMELSSLRSEDTAVYYCAGGSGISTPMDVWGQGTLVTVSS
VL: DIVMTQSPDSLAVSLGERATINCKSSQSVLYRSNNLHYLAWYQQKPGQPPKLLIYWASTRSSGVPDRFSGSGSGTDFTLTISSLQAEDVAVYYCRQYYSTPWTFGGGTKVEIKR
Take B19: the binding result in experiment [1] and in experiment [2] was “no binding (tested: 300 nM)” throughout.

B20: COVID19_P22_F11 (scFv, V domains shown)
VH: QVQLVQSGAEVKKPGSSVKVSCKASGGGFITYWISWVRQAPGQGLEWMGIIYPGDGEARYSQKFQGRVTITADESTSTAYMELSSLRSEDTAVYYCAGGSGIIQPMDVWGQGTLVTVSS
VL: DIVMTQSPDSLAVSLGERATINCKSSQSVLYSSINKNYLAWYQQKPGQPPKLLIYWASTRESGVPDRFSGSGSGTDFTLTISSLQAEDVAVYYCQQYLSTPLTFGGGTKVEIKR
Consider B20, for which the binding result in experiment [1] and in experiment [2] was “no binding (tested: 300 nM)” throughout.

B21: COVID19_P10_C05 (scFv, V domains shown)
VH: QVQLVQSGAEVKKPGSSVKVSCKASGGTFITYWIGWVRQAPGQGLEWMGIIYPGDGEARYSQKFQGRVTITADESTSTAYMELSSLRSEDTAVYYCAGSGGISTPMDVWGQGTLVTVSS
VL: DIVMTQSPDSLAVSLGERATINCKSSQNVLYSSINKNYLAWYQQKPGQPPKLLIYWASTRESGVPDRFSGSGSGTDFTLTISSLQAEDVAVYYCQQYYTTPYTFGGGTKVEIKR
On to B21, for which the binding result in experiment [1] and in experiment [2] was “no binding (tested: 300 nM)” in each case.

B22: COVID19_P22_E06 (scFv, V domains shown)
VH: QVQLVQSGAEVKKPGSSVKVSCKASGGGFITYWIGWVRQAPGQGLEWMGIIYPGDSETRYSQKFQGRVTITADESTSTAYMELSSLRSEDTAVYYCAGGSGISSDMDVWGQGTLVTVSS
VL: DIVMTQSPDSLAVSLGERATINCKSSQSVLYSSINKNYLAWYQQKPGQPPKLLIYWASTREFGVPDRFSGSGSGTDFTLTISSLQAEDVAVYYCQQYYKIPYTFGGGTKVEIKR
On to B22, for which the binding result in experiment [1] and in experiment [2] was “no binding (tested: 300 nM)” in each case.

B23: COVID19_P09_B09 (scFv, V domains shown)
VH: QVQLVQSGAEVKKPGSSVKVSCKASGYRFTDYHLHWVRQAPGQGLEWMGGIVPFSGTTNFAQKFQGRVTITADESTSTAYMELSSLRSEDTAVYYCAGGSGETTPMDVWGQGTLVTVSS
VL: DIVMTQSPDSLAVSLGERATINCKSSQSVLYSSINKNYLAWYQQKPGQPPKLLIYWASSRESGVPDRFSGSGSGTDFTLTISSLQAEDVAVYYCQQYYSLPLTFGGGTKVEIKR
In the case of B23, the binding result in experiment [1] and in experiment [2] was “no binding (tested: 300 nM)” in each case.
